Experimental data from patent EP4711453A1, “PHENYLALANINE LYASE MUTANT, AND CONJUGATE THEREOF OR PHARMACEUTICALLY ACCEPTABLE SALT THEREOF” (Peg-Bio Biopharm Co., Ltd. (Chongqing), priority 2023, dated 2024).

How the values were obtained:
[1] = tested on: anti-PEG IgG and IgM antibodies; test: Comparative immunogenicity with Pegvaliase: anti-PEG IgG and IgM antibodies after multiple administrations; type: in vivo; conditions: Pah^enu mice, 3 mg/kg s.c. once weekly for four weeks
Description: (§1) To evaluate the differences in pharmacodynamics and immunogenicity between the polyethylene glycol conjugate PL54-5 of directionally saturated modified phenylalanine lyase mutant and Pegvaliase (marketed drug), eight Pah^enu mice were allocated into two groups of four mice each, and administered with either PL54-5 (average degree of modification: 13.60, specific enzyme activity: 1.27 U/mg) from Table 3 of Example 2 or Pegvaliase Injection (manufactured by BioMarin, purchased lot number L161239, specification: 20 mg/mL/vial) at an administration dose of 3.0 mg/kg, once weekly via subcutaneous injection for four consecutive weeks. Blood samples were collected from each group of mice before administration and at 3 days and 7 days after each administration, respectively. Changes in serum phenylalanine concentration were measured (Reference: Judy Peat et al., Determination of Phenylalanine and Tyrosine by High Performance Liquid Chromatography-Tandem Mass Spectrometry) and anti-PEG-IgM/IgG antibody titers of each animal were determined at the end of the study (see Example 5 for details), to assess differences in pharmacodynamics and immunogenicity, as shown in FIG. 11 and FIG. 12.

[2] = design: species or system SD rats; conditions: rat, in vivo, sc, 2 mg/kg
Procedure: (§2) To evaluate PEGylated conjugates of phenylalanine lyase or its mutants with different average degrees of modification, the inventors divided SD rats into four groups (n=6 per group). The animals were subcutaneously injected with PL54-1 and PL54-5 (average degrees of modification: 10.54 and 13.60, respectively) and PL5-1 and PL5-5 (average degrees of modification: 8.2 and 10.53, respectively) from Table 3 of Example 2 at a dose of 2 mg/kg once a week for four doses. Blood samples were collected on D1 (Day 1), D3 (Day 3), and D7 (Day 7) after the first dose, as well as on D3 and D7 following each subsequent dose. The concentrations of PL54-1, PL54-5, PL5-1, and PL5-5 in rat serum were determined by sandwich ELISA to assess plasma drug concentration maintenance after multiple administrations. Anti-PEG-IgM/IgG antibody titers in rat serum from each group were measured using indirect ELISA (coating with PEG-BSA, adding positive rat anti-PEG Abs/test serum samples, followed by HRP-conjugated anti-rat IgM/IgG detection), while bridging ELISA (coating with PAL protein, adding positive sheep anti-PAL Abs/acidified serum samples, followed by biotin-labeled PAL detection) was also performed. The plasma drug concentration results are shown in FIG. 4, and the antibody detection results after administration were shown in FIG. 4 and FIG. 5.

anti-PAL-IgG = test: Immunogenicity of conjugates with different PEG molecular weights in rats: anti-PAL-IgG (ELISA); type: in vivo; conditions: for anti-PAL-IgG, x (average OD value of antibody detection by ELISA) / anti-PAL-IgG, Positive rate: 0.75 mg/kg s.c. once weekly
Procedure: Polyethylene glycol conjugates of phenylalanine lyase or its mutant with different structures and modifier molecular weights, namely PL20, PL24, and PL54, were prepared according to the method described in Example 2. The phenylalanine lyase in PL20 has the amino acid sequence as set forth in SEQ ID NO: 1, and the polyethylene glycol has a molecular weight of 20K. The phenylalanine lyase in PL24 has the amino acid sequence as set forth in SEQ ID NO: 6, and the polyethylene glycol has a molecular weight of 2K. The phenylalanine lyase in PL54 has the amino acid sequence as set forth in SEQ ID NO: 6, and the polyethylene glycol has a molecular weight of 5K.
To evaluate the immunogenicity of PL20, PL24, and PL54 in animals, normal rats were selected and divided into 3 groups, with 6 rats per group (3 males and 3 females). Subcutaneous administration was performed at a dose of 0.75 mg/kg with PL54 (average degree of modification 13.6, 1.27 U/mg), PL24 (average degree of modification 13.3, 0.96 U/mg), and PL20 (average degree of modification 7.6, 1.14 U/mg) for the three groups, respectively. Administration was repeated 7 times, once weekly. Blood samples were collected 7 days after each administration. Serum anti-PEG-IgG and anti-PAL4 protein antibodies were detected by ELISA (refer to Example 5 for details). In the table, "1-7" indicated 7 days after the first administration, and "7-7" indicated 7 days after the seventh administration. x represented the average OD value of antibody detection by ELISA, and the positive rate represented the ratio of the number of antibody-positive animals to the total number of animals in the group. Table 6: Antibody titers in rats after multiple administrations of polyethylene glycol conjugates with different molecular weights

[3] = tested on: anti-PAL protein antibodies; test: Anti-PAL protein antibody in rat serum after multiple administrations (bridging ELISA); type: in vivo; conditions: SD rats
Procedure: as §2

serum phenylalanine = test: Comparative pharmacodynamics with Pegvaliase: serum phenylalanine after multiple administrations; type: in vivo; conditions: Pah^enu mice, 3 mg/kg s.c. once weekly; second to fourth administrations
Description: as §1

anti-PEG antibodies = tested on: anti-PEG antibodies; design: species or system Pah^enu mice; conditions: mouse, in vivo
Procedure: (§3) To evaluate the polyethylene glycol conjugate PL54 of site-saturation modified phenylalanine lyase mutant, […] Pah^enu mice were allocated into five groups (four experimental groups and one control group), with six mice in each group. PL54-5 (average degree of modification 13.60, specific enzyme activity 1.27 U/mg) from Table 3 of Example 2 was administered to phenylketonuria animal model mice at low, medium, and high doses of 0.5 mg/kg, 1.5 mg/kg, and 4.5 mg/kg, respectively, via subcutaneous injection. The high-dose group of 4.5 mg/kg also included a group receiving intramuscular administration, once per week. The control group was administered phosphate buffered saline as a placebo subcutaneously once weekly. Blood samples were collected from mice in each group at 1 h before administration and at 2, 5, and 7 days after administration for each group. The content of PL54-5 in serum, changes in phenylalanine concentration (Reference: Judy Peat et al., Determination of Phenylalanine and Tyrosine by High Performance Liquid Chromatography-Tandem Mass Spectrometry), and Anti-PEG-IgM/IgG antibody titers (see Example 5 for details) were detected by sandwich ELISA (see Example 5 for details), and their pharmacokinetics were evaluated, see FIG. 6 to FIG.9 for details.

[4] = design: species or system Pah^enu mice; conditions: mouse, in vivo
Procedure: as §3

B1: PL54-5: polyethylene glycol conjugate of PAL4 (SEQ ID NO: 6) with PEG-SPA-5K, molar ratio 1:16, average degree of modification 13.60 (conjugate)
chain: MKTLSQAQSKTSSQQFSFTGNSSANVIIGNQKLTINDVARVARNGTLVSLTNNTDILQGIQASCDYINNAVKSGEPIYGVTSGFGGMANVAISREQASELQTNLVWFLKTGAGNKLPLADVRAAMLLRANSHMRGASGIRLELIKRMEIFLNAGVTPYVYEFGSIGASGDLVPLSYITGSLIGLDPSFKVDFNGKEMDAPTALRQLNLSPLTLLPKEGLAMMNGTSVMTGIAANCVYDTKILTAIAMGVHALDIQALNGTNQSFHPFIHNSKPHPGQLWAADQMISLLANSQLVRDELDGKHDYRDHELIQDRYSLRCLPQYLGPIVDGISQIAKQIEIEINSVTDNPLIDVDNQASYHGGNFLGQYVGMGMDHLRYYIGLLAKHLDVQIALLASPEFSNGLPPSLLGNRERKVNMGLKGLQICGNSIMPLLTFYGNSIADRFPTHAEQFNQNINSQGYTSATLARKSVDIFQNYVAIALMFGVQAVDLRTYKKTGHYDARASLSPATERLYSAVRHVVGQKPTSDRPYIWNDNEQGLDEHIAKISADIAAGGVIVQAVQDILPSLH
modifications: PEG-SPA-5K conjugate, ~13.6 PEG per molecule
[1]
  immunogenicity after long-term administration: significantly lower immunogenicity than pegvaliase
[2]
  plasma drug maintenance: superior to that of PL5-1 and PL5-5
anti-PAL-IgG; 1-7 (7 days after the first administration)
  anti-PAL-IgG, x (average OD value of antibody detection by ELISA): x=0.107
anti-PAL-IgG; 1-7, antibody-positive animals / animals in the group
  anti-PAL-IgG, Positive rate: Positive rate: 2/6
anti-PAL-IgG; 7-7 (7 days after the seventh administration)
  anti-PAL-IgG, x (average OD value of antibody detection by ELISA): x=0.089
anti-PAL-IgG; 7-7, antibody-positive animals / animals in the group
  anti-PAL-IgG, Positive rate: Positive rate: 0/6
anti-PAL-IgG; 7 days after seven doses
  anti-PAL4 protein antibody: No anti-PAL4 protein antibody was detected
[3]; serum dilution 1:10, 7 days after the fourth dose
  anti-PAL protein antibodies, positive rats: 1/6
[3]; serum dilution 1:10, after the first dose
  anti-PAL protein antibodies: very weak positivity
Serum phenylalanine
  phenylalanine-lowering effect: consistently reduced phenylalanine levels on Day 3
anti-PEG antibodies
  S/N values of IgG and IgM antibodies (anti-PEG): decreased with increasing number of administrations
  anti-PEG antibodies: positive
[4]
  plasma drug concentration in relation to the administration dose: directly proportional to the administration dose
[4]; 4.5 mg/kg
  plasma drug concentration, intramuscular compared with subcutaneous: higher than that in the subcutaneous administration group
